In patent US20240100181A1 (AbbVie / Abbott, published 2024):

Key:
[1] = biological target: FcγRIIIa V158 variant (high-affinity allotype) (human, UniProt P08637 17-254); experiment: cell-based or functional assay
[2] = biological target: FcγRIIIa F158 variant (low-affinity allotype) (human, UniProt P08637 17-254); experiment: cell-based or functional assay
human CD19 [3] = biological target: T1, human CD19 (human, UniProt P15391 20-556); experiment: cell-based or functional assay
T1 sequence (looked up): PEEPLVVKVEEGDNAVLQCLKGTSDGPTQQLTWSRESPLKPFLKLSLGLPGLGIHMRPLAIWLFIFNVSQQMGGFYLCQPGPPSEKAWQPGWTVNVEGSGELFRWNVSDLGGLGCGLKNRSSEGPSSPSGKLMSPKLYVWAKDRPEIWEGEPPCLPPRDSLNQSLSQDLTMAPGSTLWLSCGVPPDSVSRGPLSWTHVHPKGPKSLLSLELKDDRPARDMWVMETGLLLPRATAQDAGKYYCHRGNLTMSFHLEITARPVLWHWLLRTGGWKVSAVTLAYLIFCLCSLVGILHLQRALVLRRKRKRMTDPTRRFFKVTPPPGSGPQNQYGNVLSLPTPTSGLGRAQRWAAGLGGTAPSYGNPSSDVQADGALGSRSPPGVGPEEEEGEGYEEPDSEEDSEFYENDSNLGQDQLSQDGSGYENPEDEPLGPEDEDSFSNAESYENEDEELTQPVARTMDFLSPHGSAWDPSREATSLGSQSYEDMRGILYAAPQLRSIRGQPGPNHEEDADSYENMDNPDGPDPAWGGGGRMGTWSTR

human CD19 [4] = biological target: T1, human CD19; experiment: cell-based or functional assay; remark: listed apart in the source
human CD19 [5] = biological target: T1, human CD19; experiment: flow cytometry on RS4; 11 (ALL) cells, endogenous CD19; average of two experiments
human CD19 [6] = biological target: T1, human CD19; experiment: flow cytometry on OCI-LY19 (DLBCL) cells, endogenous CD19; average of two experiments
human CD19 [7] = biological target: T1, human CD19; experiment: flow cytometry on SUP-B15 (ALL) cells, endogenous CD19; average of two experiments
human CD19 [8] = biological target: T1, human CD19; experiment: flow cytometry on Raji (BL) cells, endogenous CD19; average of two experiments

FcγRIIIa V158 variant (high-affinity allotype), sequence (P08637 other isoform, or with tags, fused parts or gaps mutant limits assumed): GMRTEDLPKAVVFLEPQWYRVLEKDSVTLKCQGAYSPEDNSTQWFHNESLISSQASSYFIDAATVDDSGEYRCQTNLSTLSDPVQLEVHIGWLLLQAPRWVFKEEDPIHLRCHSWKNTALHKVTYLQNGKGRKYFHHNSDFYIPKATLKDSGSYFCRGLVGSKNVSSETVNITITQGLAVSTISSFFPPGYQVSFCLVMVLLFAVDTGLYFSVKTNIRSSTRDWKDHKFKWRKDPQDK
FcγRIIIa F158 variant (low-affinity allotype), sequence (P08637 17-254, change not shown): as the sequence (P08637 other isoform, or with tags, fused parts or gaps mutant limits assumed) above, with V160F counted along it

B1: ADC-1 (CD19 Phosphorylated GRM agonist ADC: CD19 mAb conjugated to the drug linker of Formula V) (other)
heavy: EVQLVESGGGLVQPGGSLRLSCAASGFTFTTYWINWVRQAPGKGLEWIGNIYPSDSYTNYNQKFKDRATLSVDKSKNTAYLQMNSLRAEDTAVYYCTREDYYGSSSYYAMDYWGQGTLVTVSSASTKGPSVFPLAPSSKSTSGGTAALGCLVKDYFPEPVTVSWNSGALTSGVHTFPAVLQSSGLYSLSSVVTVPSSSLGTQTYICNVNHKPSNTKVDKKVEPKSCDKTHTCPPCPAPELLGGPSVFLFPPKPKDTLMISRTPEVTCVVVDVSHEDPEVKFNWYVDGVEVHNAKTKPREEQYNGSTYRVVSVLTVLHQDWLNGKEYKCKVSNKALPAPIEKTISKAKGQPREPQVYTLPPSREEMTKNQVSLTCLVKGFYPSDIAVEWESNGQPENNYKTTPPVLDSDGSFFLYSKLTVDKSRWQQGNVFSCSVMHEALHNHYTQKSLSLSPGK
light: AILMTQSPSSLSASVGDRVTITCKASQDVGTAVAWYQQKPGKAPKLLIYWASTRHTGVPSRFSGSGSGTDFTLTISSLQPEDFATYYCQQYSTYPLTFGQGTKVEIKRTVAAPSVFIFPPSDEQLKSGTASVVCLLNNFYPREAKVQWKVDNALQSGNSQESVTEQDSKDSTYSLSSTLTLSKADYEKHKVYACEVTHQGLSSPVTKSFNRGEC
modifications: zero or one phosphate-GRM drug linker molecule (Formula V) attached via cysteine -S-; cysteine position not stated; afucosylated at ASN-300 (EU: ASN-297); zero, one, two or three phosphate-GRM drug linker molecules (Formula V, Ala-Ala linker) attached via cysteine -S-; cysteine positions not stated
With B1 the “ADCC NFAT reporter activation (Jurkat reporter cells, Raji target cells)” value (shortened to “ADCC NFAT reporter activation”) [1] was 0.017 nM, the “ADCC NFAT reporter activation” value [2] was 0.018 nM and the “PBMC co-culture ADCC, specific lysis EC50 (RS4; 11, Raji, KARPAS422)” value (human CD19 [3]) was 0.07 to 0.142 nM. The “anti-proliferative assay EC50, KARPAS422 (DLBCL)” value (human CD19 [4]) was 0.21 nM, the “anti-proliferative assay EC50, OCI-LY19 (DLBCL)” value (human CD19 [4]) was 103 nM and the “anti-proliferative assay EC50, RS4; 11 (ALL)” value (human CD19 [4]) was 0.082 nM. For the same binder, the “anti-proliferative assay EC50, SU-DHL-6 (DLBCL)” value (human CD19 [4]) was 0.311 nM and the “anti-proliferative assay EC50, SUP-B15 (ALL)” value (human CD19 [4]) was 0.321 nM.

B2: CD19 mAb (humanized, afucosylated anti-CD19 IgG1 kappa monoclonal antibody of Example 1) (antibody)
heavy: EVQLVESGGGLVQPGGSLRLSCAASGFTFTTYWINWVRQAPGKGLEWIGNIYPSDSYTNYNQKFKDRATLSVDKSKNTAYLQMNSLRAEDTAVYYCTREDYYGSSSYYAMDYWGQGTLVTVSSASTKGPSVFPLAPSSKSTSGGTAALGCLVKDYFPEPVTVSWNSGALTSGVHTFPAVLQSSGLYSLSSVVTVPSSSLGTQTYICNVNHKPSNTKVDKKVEPKSCDKTHTCPPCPAPELLGGPSVFLFPPKPKDTLMISRTPEVTCVVVDVSHEDPEVKFNWYVDGVEVHNAKTKPREEQYNGSTYRVVSVLTVLHQDWLNGKEYKCKVSNKALPAPIEKTISKAKGQPREPQVYTLPPSREEMTKNQVSLTCLVKGFYPSDIAVEWESNGQPENNYKTTPPVLDSDGSFFLYSKLTVDKSRWQQGNVFSCSVMHEALHNHYTQKSLSLSPGK
light: AILMTQSPSSLSASVGDRVTITCKASQDVGTAVAWYQQKPGKAPKLLIYWASTRHTGVPSRFSGSGSGTDFTLTISSLQPEDFATYYCQQYSTYPLTFGQGTKVEIKRTVAAPSVFIFPPSDEQLKSGTASVVCLLNNFYPREAKVQWKVDNALQSGNSQESVTEQDSKDSTYSLSSTLTLSKADYEKHKVYACEVTHQGLSSPVTKSFNRGEC
modifications: afucosylated N-glycan at ASN-300 (EU: ASN-297), greater than or equal to 90% afucosylated
notes: Human IgG1, kappa; Made in CHO cells expressing Pseudomonas RMD; also called CD19 antibody; humanized anti-CD19 antibody
For B2, the “ADCC NFAT reporter activation” value [1] was 0.027 nM, the “ADCC NFAT reporter activation” value [2] was 0.023 nM and the EC50 (human CD19 [5]) was 0.401 nM. For the same binder, the EC50 (human CD19 [6]) was 0.836 nM, the EC50 (human CD19 [7]) was 0.683 nM and the EC50 (human CD19 [8]) was 0.713 nM.
